Laboratory results reported in article PMC8552062, “Contributions of UDP-Glucuronosyltransferases to Human Hepatic and Intestinal Metabolism of Ticagrelor and Inhibition of UGTs and Cytochrome P450 Enzymes by Ticagrelor and its Glucuronidated Metabolite” (Frontiers in Pharmacology, 2021).

Tests used:
[1] = tested on: ticagrelor glucuronidation in pooled HLM; assay: Effects of typical UGT inhibitors on ticagrelor glucuronidation in pooled HLM; type: in vitro ADME, human; conditions: 10 μM ticagrelor
Description: (§1) Ticagrelor glucuronidation was investigated in an in vitro incubation system by using HLM, HIM, and recombinant human UGTs. The incubation system consisted of enzyme sources (HLM, HIM, or human recombinant UGTs), various concentrations of ticagrelor (dissolved in 50% methanol, 1% v/v, 1, 2, 5, 10, 20, 50, 100, 200, 500 μM of final concentration), alamethicin (50 μg/mg protein), 5 mM MgCl2, 100 mM tris-HCL buffer (pH 7.4), and 5 mM UDPGA in a total volume of 100 μl. Alamethicin is a pore-forming polypeptide used to activate UGTs in HLM and HIM ([Fisher et al., 2000]). Preliminary studies were conducted to determine the optimal protein concentrations and incubation times. Linear conditions of ticagrelor-O-Glu formation from ticagrelor, i.e., HLM, 0.2 mg of protein/ml and 60 min, HIM, 0.2 mg of protein/ml and 60 min, and recombinant human UGTs, 0.2 mg of protein/ml and 60 min were selected. The incubation mixture without UDPGA was placed on ice for 15 min to activate UGT by alamethicin. After pre-incubation for 5 min at 37°C, the reactions were started by the addition of UDPGA. After another 60 min of incubation at 37°C, the reaction was terminated by adding 100 μl of acetonitrile containing internal standard (diazepam). The mixture vortexed for 2 min and then centrifuged at 14,000 rpm for 10 min at 4°C. The resulting supernatant was injected into a liquid chromatography tandem mass spectrometry (LC-MS/MS, Applied Biosystems/MDS Sciex, Foster City, CA) system for the detection of ticagrelor-O-Glu.
(§2) The final concentrations of UGT inhibitors for each UGT isoform were set in accordance with previous publications as follows: atazanavir, 1 μM, UGT1A1; celastrol, 5 μM, UGT1A3; hecogenin, 1 μM, UGT1A4; niflumic acid, 1 μM, UGT1A9; and mefenamic acid, 20 μM, UGT2B7 ([Lee et al., 2019]). The assays were performed as described above, with 10 μM ticagrelor. The percentage of remaining glucuronidation activity was expressed by the following equation: Remaining activity(%)=Concentration of ticagrelor-O-Glu with inhibitor /Concentration of ticagrelor-O-Glu without inhibitor×100.

[2] = tested on: ticagrelor glucuronidation in pooled HIM; assay: Effects of typical UGT inhibitors on ticagrelor glucuronidation in pooled HIM; type: in vitro ADME, human; conditions: 10 μM ticagrelor
Description: as §1, §2

[3] = substrate: CCCSc1nc(N[C@@H]2C[C@H]2c2ccc(F)c(F)c2)c2nnn([C@@H]3C[C@H](OCCO)[C@@H](O)[C@H]3O)c2n1; assay: Ticagrelor glucuronidation by recombinant human UGT1A1; type: in vitro ADME; conditions: other: recombinant UGT1A1, Michaelis-Menten kinetics; pH 7.4; 37.0 °C
Description: as §1
(§3) Kinetic analyses were performed using the mean values of triplicate determinations with either pooled HLM, HIM, or recombinant human UGTs. All data were analyzed by nonlinear regression analysis using the GraphPad Prism 6 (GraphPad Software Inc., CA, United States). Michaelis-Menten kinetics (Eq. 1) or substrate inhibition kinetics (Eq. 2) ([Houston and Kenworthy, 2000]) were tested to determine the optimal model for describing the data. […] Intrinsic clearance (CLint) was calculated by dividing Vmax by Km.

[4] = substrate: CCCSc1nc(N[C@@H]2C[C@H]2c2ccc(F)c(F)c2)c2nnn([C@@H]3C[C@H](OCCO)[C@@H](O)[C@H]3O)c2n1; assay: Ticagrelor glucuronidation by recombinant human UGT2B7; type: in vitro ADME; conditions: other: recombinant UGT2B7, Michaelis-Menten kinetics; pH 7.4; 37.0 °C
Description: as §1, §3

[5] = substrate: CCCSc1nc(N[C@@H]2C[C@H]2c2ccc(F)c(F)c2)c2nnn([C@@H]3C[C@H](OCCO)[C@@H](O)[C@H]3O)c2n1; assay: Ticagrelor glucuronidation by recombinant human UGT1A8; type: in vitro ADME; conditions: other: recombinant UGT1A8, Michaelis-Menten kinetics; pH 7.4; 37.0 °C
Description: as §1, §3

[6] = substrate: CCCSc1nc(N[C@@H]2C[C@H]2c2ccc(F)c(F)c2)c2nnn([C@@H]3C[C@H](OCCO)[C@@H](O)[C@H]3O)c2n1; assay: Ticagrelor glucuronidation by recombinant human UGT1A9; type: in vitro ADME; conditions: other: recombinant UGT1A9, Michaelis-Menten kinetics; pH 7.4; 37.0 °C
Description: as §1, §3

[7] = substrate: CCCSc1nc(N[C@@H]2C[C@H]2c2ccc(F)c(F)c2)c2nnn([C@@H]3C[C@H](OCCO)[C@@H](O)[C@H]3O)c2n1; assay: Ticagrelor glucuronidation by recombinant human UGT1A7; type: in vitro ADME; conditions: other: recombinant UGT1A7, Michaelis-Menten kinetics; pH 7.4; 37.0 °C
Description: as §1, §3

[8] = substrate: CCCSc1nc(N[C@@H]2C[C@H]2c2ccc(F)c(F)c2)c2nnn([C@@H]3C[C@H](OCCO)[C@@H](O)[C@H]3O)c2n1; assay: Ticagrelor glucuronidation by recombinant human UGT1A3; type: in vitro ADME; conditions: other: recombinant UGT1A3, Michaelis-Menten kinetics; pH 7.4; 37.0 °C
Description: as §1, §3

Molecule: COC(=O)N[C@H](C(=O)N[C@@H](Cc1ccccc1)[C@@H](O)CN(Cc1ccc(-c2ccccn2)cc1)NC(=O)[C@@H](NC(=O)OC)C(C)(C)C)C(C)(C)C [atazanavir]
- inhibition of ticagrelor-O-Glu formation ([1]; inhibitor 1 μM): 6.66%
- inhibition of ticagrelor-O-Glu formation ([2]; inhibitor 1 μM): 6.08%

Molecule: CC1=C(O)C(=O)C=C2C1=CC=C1[C@@]2(C)CC[C@@]2(C)[C@@H]3C[C@](C)(C(=O)O)CC[C@]3(C)CC[C@]12C [celastrol]
- inhibition of ticagrelor-O-Glu formation ([1]; inhibitor 5 μM): 19.35%
- inhibition of ticagrelor-O-Glu formation ([2]; inhibitor 5 μM): 25.02%

Molecule: Cc1cccc(Nc2ccccc2C(=O)O)c1C [mefenamic acid]
- inhibition of ticagrelor-O-Glu formation ([1]; inhibitor 20 μM): 42.95%
- inhibition of ticagrelor-O-Glu formation ([2]; inhibitor 20 μM): 19.24%

Molecule: O=C(O)c1cccnc1Nc1cccc(C(F)(F)F)c1 [niflumic acid]
- inhibition of ticagrelor-O-Glu formation ([1]; inhibitor 1 μM): 35.48%
- inhibition of ticagrelor-O-Glu formation ([2]; inhibitor 1 μM): 17.45%

Molecule: hecogenin
- inhibition of ticagrelor-O-Glu formation ([1]; inhibitor 1 μM): 9.29%
- inhibition of ticagrelor-O-Glu formation ([2]; inhibitor 1 μM): 16.75%

B1: recombinant human UGT1A1 (Homo sapiens) (protein)
chain: HAGKILLIPVDGSHWLSMLGAIQQLQQRGHEIVVLAPDASLYIRDGAFYTLKTYPVPFQREDVKESFVSLGHNVFENDSFLQRVIKTYKKIKKDSAMLLSGCSHLLHNKELMASLAESSFDVMLTDPFLPCSPIVAQYLSLPTVFFLHALPCSLEFEATQCPNPFSYVPRPLSSHSDHMTFLQRVKNMLIAFSQNFLCDVVYSPYATLASEFLQREVTVQDLLSSASVWLFRSDFVKDYPRPIMPNMVFVGGINCLHQNPLSQEFEAYINASGEHGIVVFSLGSMVSEIPEKKAMAIADALGKIPQTVLWRYTGTRPSNLANNTILVKWLPQNDLLGHPMTRAFITHAGSHGVYESICNGVPMVMMPLFGDQMDNAKRMETKGAGVTLNVLEMTSEDLENALKAVINDKSYKENIMRLSSLHKDRPVEPLDLAVFWVEFVMRHKGAPHLRPAAHDLTWYQYHSLDVIGFLLAVVLTVAFITFKCCAYGYRKCLGKKGRVKKAHKSKTH
notes: purchased BD Gentest; host or cells: baculovirus-infected insect cells
- Km [3]: 7.57 µM
- Vmax [3]: 2e-07 µmol/min/mg
- Vmax/Km [3]: 0.03 µL/min/mg

B2: recombinant human UGT2B7 (Homo sapiens) (protein)
chain: GKVLVWAAEYSHWMNIKTILDELIQRGHEVTVLASSASILFDPNNSSALKIEIYPTSLTKTELENFIMQQIKRWSDLPKDTFWLYFSQVQEIMSIFGDITRKFCKDVVSNKKFMKKVQESRFDVIFADAIFPCSELLAELFNIPFVYSLSFSPGYTFEKHSGGFIFPPSYVPVVMSELTDQMTFMERVKNMIYVLYFDFWFEIFDMKKWDQFYSEVLGRPTTLSETMGKADVWLIRNSWNFQFPYPLLPNVDFVGGLHCKPAKPLPKEMEDFVQSSGENGVVVFSLGSMVSNMTEERANVIASALAQIPQKVLWRFDGNKPDTLGLNTRLYKWIPQNDLLGHPKTRAFITHGGANGIYEAIYHGIPMVGIPLFADQPDNIAHMKARGAAVRVDFNTMSSTDLLNALKRVINDPSYKENVMKLSRIQHDQPVKPLDRAVFWIEFVMRHKGAKHLRVAAHDLTWFQYHSLDVIGFLLVCVATVIFIVTKCCLFCFWKFARKAKKGKND
notes: as for B1
- Km [4]: 14.53 µM
- Vmax [4]: 2.3e-07 µmol/min/mg
- Vmax/Km [4]: 0.02 µL/min/mg

B3: recombinant human UGT1A8 (Homo sapiens) (protein)
chain: GKLLVVPMDGSHWFTMQSVVEKLILRGHEVVVVMPEVSWQLGKSLNCTVKTYSTSYTLEDLDREFMDFADAQWKAQVRSLFSLFLSSSNGFFNLFFSHCRSLFNDRKLVEYLKESSFDAVFLDPFDACGLIVAKYFSLPSVVFARGIACHYLEEGAQCPAPLSYVPRILLGFSDAMTFKERVRNHIMHLEEHLFCQYFSKNALEIASEILQTPVTAYDLYSHTSIWLLRTDFVLDYPKPVMPNMIFIGGINCHQGKPLPMEFEAYINASGEHGIVVFSLGSMVSEIPEKKAMAIADALGKIPQTVLWRYTGTRPSNLANNTILVKWLPQNDLLGHPMTRAFITHAGSHGVYESICNGVPMVMMPLFGDQMDNAKRMETKGAGVTLNVLEMTSEDLENALKAVINDKSYKENIMRLSSLHKDRPVEPLDLAVFWVEFVMRHKGAPHLRPAAHDLTWYQYHSLDVIGFLLAVVLTVAFITFKCCAYGYRKCLGKKGRVKKAHKSKTH
notes: as for B1
- Km [5]: 6.63 µM
- Vmax [5]: 9e-08 µmol/min/mg
- Vmax/Km [5]: 0.01 µL/min/mg

B4: recombinant human UGT1A9 (Homo sapiens) (protein)
chain: GKLLVVPMDGSHWFTMRSVVEKLILRGHEVVVVMPEVSWQLGRSLNCTVKTYSTSYTLEDLDREFKAFAHAQWKAQVRSIYSLLMGSYNDIFDLFFSNCRSLFKDKKLVEYLKESSFDAVFLDPFDNCGLIVAKYFSLPSVVFARGILCHYLEEGAQCPAPLSYVPRILLGFSDAMTFKERVRNHIMHLEEHLLCHRFFKNALEIASEILQTPVTEYDLYSHTSIWLLRTDFVLDYPKPVMPNMIFIGGINCHQGKPLPMEFEAYINASGEHGIVVFSLGSMVSEIPEKKAMAIADALGKIPQTVLWRYTGTRPSNLANNTILVKWLPQNDLLGHPMTRAFITHAGSHGVYESICNGVPMVMMPLFGDQMDNAKRMETKGAGVTLNVLEMTSEDLENALKAVINDKSYKENIMRLSSLHKDRPVEPLDLAVFWVEFVMRHKGAPHLRPAAHDLTWYQYHSLDVIGFLLAVVLTVAFITFKCCAYGYRKCLGKKGRVKKAHKSKTH
notes: as for B1
- Km [6]: 1.60 µM
- Vmax [6]: 9e-07 µmol/min/mg
- Vmax/Km [6]: 0.56 µL/min/mg

B5: recombinant human UGT1A7 (Homo sapiens) (protein)
chain: GKLLVVPMDGSHWFTMQSVVEKLILRGHEVVVVMPEVSWQLGRSLNCTVKTYSTSYTLEDQDREFMVFADARWTAPLRSAFSLLTSSSNGIFDLFFSNCRSLFNDRKLVEYLKESCFDAVFLDPFDACGLIVAKYFSLPSVVFARGIFCHYLEEGAQCPAPLSYVPRLLLGFSDAMTFKERVWNHIMHLEEHLFCPYFFKNVLEIASEILQTPVTAYDLYSHTSIWLLRTDFVLEYPKPVMPNMIFIGGINCHQGKPVPMEFEAYINASGEHGIVVFSLGSMVSEIPEKKAMAIADALGKIPQTVLWRYTGTRPSNLANNTILVKWLPQNDLLGHPMTRAFITHAGSHGVYESICNGVPMVMMPLFGDQMDNAKRMETKGAGVTLNVLEMTSEDLENALKAVINDKSYKENIMRLSSLHKDRPVEPLDLAVFWVEFVMRHKGAPHLRPAAHDLTWYQYHSLDVIGFLLAVVLTVAFITFKCCAYGYRKCLGKKGRVKKAHKSKTH
notes: as for B1
- Km [7]: 1.68 µM
- Vmax [7]: 1.2e-07 µmol/min/mg
- Vmax/Km [7]: 0.07 µL/min/mg

B6: recombinant human UGT1A3 (Homo sapiens) (protein)
chain: GKVLVVPIDGSHWLSMREVLRELHARGHQAVVLTPEVNMHIKEENFFTLTTYAISWTQDEFDRHVLGHTQLYFETEHFLKKFFRSMAMLNNMSLVYHRSCVELLHNEALIRHLNATSFDVVLTDPVNLCAAVLAKYLSIPTVFFLRNIPCDLDFKGTQCPNPSSYIPRLLTTNSDHMTFMQRVKNMLYPLALSYICHAFSAPYASLASELFQREVSVVDILSHASVWLFRGDFVMDYPRPIMPNMVFIGGINCANRKPLSQEFEAYINASGEHGIVVFSLGSMVSEIPEKKAMAIADALGKIPQTVLWRYTGTRPSNLANNTILVKWLPQNDLLGHPMTRAFITHAGSHGVYESICNGVPMVMMPLFGDQMDNAKRMETKGAGVTLNVLEMTSEDLENALKAVINDKSYKENIMRLSSLHKDRPVEPLDLAVFWVEFVMRHKGAPHLRPAAHDLTWYQYHSLDVIGFLLAVVLTVAFITFKCCAYGYRKCLGKKGRVKKAHKSKTH
notes: as for B1
- Km [8]: 19.19 µM
- Vmax [8]: 7.8e-07 µmol/min/mg
- Vmax/Km [8]: 0.04 µL/min/mg
